Reference: PMC5632138 (Journal of molecular biology, 2017)

Experiments:
[1] = molecular target: T1, Full-length ETV4 Glu373Ala (UniProt P43268 1-484, Glu373Ala); experiment: BLI
T1 sequence (looked up): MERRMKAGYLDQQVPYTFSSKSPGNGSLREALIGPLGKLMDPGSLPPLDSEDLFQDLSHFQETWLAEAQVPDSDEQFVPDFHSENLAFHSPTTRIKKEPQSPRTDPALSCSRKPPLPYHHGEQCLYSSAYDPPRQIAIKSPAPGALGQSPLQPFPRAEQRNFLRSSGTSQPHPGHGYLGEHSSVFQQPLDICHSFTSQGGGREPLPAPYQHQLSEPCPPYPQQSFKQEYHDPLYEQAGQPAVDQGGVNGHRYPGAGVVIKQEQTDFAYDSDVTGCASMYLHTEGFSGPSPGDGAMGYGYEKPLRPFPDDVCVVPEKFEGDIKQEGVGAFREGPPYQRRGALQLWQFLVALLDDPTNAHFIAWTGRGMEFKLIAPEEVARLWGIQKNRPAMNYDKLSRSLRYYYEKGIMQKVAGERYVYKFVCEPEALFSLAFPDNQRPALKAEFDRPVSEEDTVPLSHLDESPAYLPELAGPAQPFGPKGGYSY

[2] = molecular target: T2, Full-length ETV4 Lys370Ala (UniProt P43268 1-484, Lys370Ala); experiment: BLI
T2 sequence (looked up): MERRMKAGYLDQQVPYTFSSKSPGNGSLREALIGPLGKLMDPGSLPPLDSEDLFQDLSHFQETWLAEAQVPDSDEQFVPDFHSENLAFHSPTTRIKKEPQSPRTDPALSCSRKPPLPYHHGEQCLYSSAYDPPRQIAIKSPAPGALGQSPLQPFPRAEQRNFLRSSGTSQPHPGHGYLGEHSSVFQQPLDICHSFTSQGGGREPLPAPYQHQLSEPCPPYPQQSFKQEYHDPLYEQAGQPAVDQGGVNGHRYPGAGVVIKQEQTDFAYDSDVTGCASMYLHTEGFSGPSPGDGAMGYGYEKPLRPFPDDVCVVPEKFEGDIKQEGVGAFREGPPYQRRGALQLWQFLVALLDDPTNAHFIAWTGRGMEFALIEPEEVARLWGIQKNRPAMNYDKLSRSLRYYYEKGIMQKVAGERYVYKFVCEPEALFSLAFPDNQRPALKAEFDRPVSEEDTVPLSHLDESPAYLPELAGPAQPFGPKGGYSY

binding result [1]: binds | binding result [2]: binds
B1: MED25 ACID (residues 391–553), biotinylated ligand for biolayer interferometry (domain or fragment, human, UniProt Q71SY5 391-553, looked up)
chain: GQQSVSNKLLAWSGVLEWQEKPKPASVDANTKLTRSLPCQVYVNHGENLKTEQWPQKLIMQLIPQQLLTTLGPLFRNSRMVQFHFTNKDLESLKGLYRIMGNGFAGCVHFPHTAPCEVRVLMLLYSSKKKIFMGLIPYDQSGFVNGIRQVITNHKQVQQQKLE
modifications: biotin (biotinylated; D-biotin added at the induction point)
